Reference: publication PMC11417369, “DNA sequence and chromatin differentiate sequence-specific transcription factor binding in the human malaria parasite Plasmodium falciparum”

T1: AP2-LT D1 (Plasmodium falciparum, UniProt Q8IAM1 2520-2577)
T1 sequence: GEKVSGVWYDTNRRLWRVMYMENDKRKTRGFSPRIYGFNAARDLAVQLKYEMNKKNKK

T2: PF3D7_0420300 D1 (Plasmodium falciparum, UniProt Q8I1N6 1956-2015)
T2 sequence: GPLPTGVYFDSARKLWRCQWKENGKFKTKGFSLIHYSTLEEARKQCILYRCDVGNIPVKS

T3: AP2-HC D1 (Plasmodium falciparum, UniProt Q8IKR9 1316-1374)
T3 sequence: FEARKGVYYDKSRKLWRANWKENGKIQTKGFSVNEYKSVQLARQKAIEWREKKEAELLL


Assays:
Assay in all cases: gcPBM; about 25 ug protein; PBS, 1% milk, 0.2 mg/ml BSA, salmon testes DNA, 0.03% Triton X-100
Details in all cases: tags: N-terminal GST (pGEX-4T-1), kept; label: surface-attached array probe
[1] = target: T1, AP2-LT D1
[2] = target: T2, PF3D7_0420300 D1
[3] = target: T3, AP2-HC D1

Binder	binding signal [1]	binding signal [2]	binding signal [3]
CACACA_site5283 (dsDNA) DNA 1: AATATAAATAAAAACACACACACACCGATATATATA DNA 2: TATATATATCGGTGTGTGTGTGTTTTTATTTATATT	10.3 ln median PBM intensity, better of two orientations	10.3 ln median PBM intensity, better of two orientations	
CACACA_site8058 (dsDNA) DNA 1: AACATACATAAACACACACACACACCCACACCCACA DNA 2: TGTGGGTGTGGGTGTGTGTGTGTGTTTATGTATGTT	10.6 ln median PBM intensity, better of two orientations	10.4 ln median PBM intensity, better of two orientations	
CACACA_site3848 (dsDNA) DNA 1: ATAAAACAAAAACACACACACATACACAAAAAAAAA DNA 2: TTTTTTTTTGTGTATGTGTGTGTGTTTTTGTTTTAT			12.2 ln median PBM intensity, better of two orientations
CACACA_site8115 (dsDNA) DNA 1: AGAAAATACACGCATACACACACACCCACCCACATA DNA 2: TATGTGGGTGGGTGTGTGTGTATGCGTGTATTTTCT	10.7 ln median PBM intensity, better of two orientations	10.6 ln median PBM intensity, better of two orientations	
CACACA_site2623 (dsDNA) DNA 1: TAATAAATAAATGACACACACACACCCAAAAAAAAA DNA 2: TTTTTTTTTGGGTGTGTGTGTGTCATTTATTTATTA			12.1 ln median PBM intensity, better of two orientations
CACACA_negctrl_site1507 (dsDNA) DNA 1: TCTTTAAATCGAGTGTTAAATAATATAATATAAAAA DNA 2: TTTTTATATTATATTATTTAACACTCGATTTAAAGA	8.73 ln median PBM intensity, better of two orientations	9 ln median PBM intensity, better of two orientations	
CACACA_site4111 (dsDNA) DNA 1: CCCCCCGTGTTATATACACACATAATCAAATAAAAT DNA 2: ATTTTATTTGATTATGTGTGTATATAACACGGGGGG	10.8 ln median PBM intensity, better of two orientations	10.8 ln median PBM intensity, better of two orientations	
CACACA_negctrl_site917 (dsDNA) DNA 1: ATTTCTATAAAAATAATCTACATTTTTTTTTTTTTT DNA 2: AAAAAAAAAAAAAATGTAGATTATTTTTATAGAAAT	8.54 ln median PBM intensity, better of two orientations	8.83 ln median PBM intensity, better of two orientations	
CACACA_negctrl_site1463 (dsDNA) DNA 1: TGTTTCTGCTCTGGACATTTTTAAAAAAGGGAAAGC DNA 2: GCTTTCCCTTTTTTAAAAATGTCCAGAGCAGAAACA	8.66 ln median PBM intensity, better of two orientations	8.94 ln median PBM intensity, better of two orientations	
CACACA_negctrl_site1450 (dsDNA) DNA 1: ATATATTTTTAAAAAAATTAAGAATTTTACATCTCC DNA 2: GGAGATGTAAAATTCTTAATTTTTTTAAAAATATAT	8.56 ln median PBM intensity, better of two orientations	8.78 ln median PBM intensity, better of two orientations	
CACACA_site6304 (dsDNA) DNA 1: CACACGCACGAACACACACACACACGCGCACATATA DNA 2: TATATGTGCGCGTGTGTGTGTGTGTTCGTGCGTGTG	10.7 ln median PBM intensity, better of two orientations	10.4 ln median PBM intensity, better of two orientations	
CACACA_negctrl_site676 (dsDNA) DNA 1: TATTTATTGTGATACTTATATTACTTAATGATTAAA DNA 2: TTTAATCATTAAGTAATATAAGTATCACAATAAATA	8.81 ln median PBM intensity, better of two orientations	9.03 ln median PBM intensity, better of two orientations	
CACACA_negctrl_site1225 (dsDNA) DNA 1: ATTTTTTTTTTTTTTTTTTATATGCTCTCCATGAGA DNA 2: TCTCATGGAGAGCATATAAAAAAAAAAAAAAAAAAT	8.79 ln median PBM intensity, better of two orientations	8.86 ln median PBM intensity, better of two orientations	
CACACA_negctrl_site196 (dsDNA) DNA 1: TTTTTAAATATATAATAGAATTGATTGTATTATATA DNA 2: TATATAATACAATCAATTCTATTATATATTTAAAAA	8.6 ln median PBM intensity, better of two orientations	8.88 ln median PBM intensity, better of two orientations	
CACACA_negctrl_site1546 (dsDNA) DNA 1: TCATATATTCAAAAATTTAAAGTTAATAAAACTTGA DNA 2: TCAAGTTTTATTAACTTTAAATTTTTGAATATATGA	8.35 ln median PBM intensity, better of two orientations	8.61 ln median PBM intensity, better of two orientations	
CACACA_negctrl_site1067 (dsDNA) DNA 1: ATTATTTTATGAGACATAAAAAAAAAAAAAAAAAAA DNA 2: TTTTTTTTTTTTTTTTTTTATGTCTCATAAAATAAT	8.39 ln median PBM intensity, better of two orientations	8.39 ln median PBM intensity, better of two orientations	
CACACA_negctrl_site1047 (dsDNA) DNA 1: TTCACATGAAGAATTAAAATAAAACTAGGAAATTAA DNA 2: TTAATTTCCTAGTTTTATTTTAATTCTTCATGTGAA	8.81 ln median PBM intensity, better of two orientations	9.06 ln median PBM intensity, better of two orientations	
CACACA_site2302 (dsDNA) DNA 1: GACATATTCCCCCCCACACACACACCCACATACATA DNA 2: TATGTATGTGGGTGTGTGTGTGGGGGGGAATATGTC	10.9 ln median PBM intensity, better of two orientations	10.9 ln median PBM intensity, better of two orientations	
CACACA_site6310 (dsDNA) DNA 1: ATACATCAAGGACACACACACACACGCACACGCACA DNA 2: TGTGCGTGTGCGTGTGTGTGTGTGTCCTTGATGTAT	10.6 ln median PBM intensity, better of two orientations	10.4 ln median PBM intensity, better of two orientations	
